Source: patent US20110195494A1 (Boehringer Ingelheim, published 2011)

Columns and labels:
[1] = target: T1, full length human DLL4 on overexpressing CHO or HEK293 cells (human, UniProt Q9NR61 27-685); test: FMAT, hNotch1/Fc on CHO-hDLL4, periplasmic extract
T1 construct: also called CHO-hDLL4; HEK293-hDII4
Source text: (§1) All calculations are based on the FL1 total signal which comprises the average of the fluorescence per well times the number of counts per well.

[2] = target: T2, full length mouse DLL4 on overexpressing CHO or HEK293 cells (mouse, UniProt Q9JI71 27-686); test: FMAT, hNotch1/Fc on CHO-mDLL4, periplasmic extract
T2 construct: whole, on cells; also called CHO-mDLL4; mDLL4
T2 sequence (Q9JI71 27-686): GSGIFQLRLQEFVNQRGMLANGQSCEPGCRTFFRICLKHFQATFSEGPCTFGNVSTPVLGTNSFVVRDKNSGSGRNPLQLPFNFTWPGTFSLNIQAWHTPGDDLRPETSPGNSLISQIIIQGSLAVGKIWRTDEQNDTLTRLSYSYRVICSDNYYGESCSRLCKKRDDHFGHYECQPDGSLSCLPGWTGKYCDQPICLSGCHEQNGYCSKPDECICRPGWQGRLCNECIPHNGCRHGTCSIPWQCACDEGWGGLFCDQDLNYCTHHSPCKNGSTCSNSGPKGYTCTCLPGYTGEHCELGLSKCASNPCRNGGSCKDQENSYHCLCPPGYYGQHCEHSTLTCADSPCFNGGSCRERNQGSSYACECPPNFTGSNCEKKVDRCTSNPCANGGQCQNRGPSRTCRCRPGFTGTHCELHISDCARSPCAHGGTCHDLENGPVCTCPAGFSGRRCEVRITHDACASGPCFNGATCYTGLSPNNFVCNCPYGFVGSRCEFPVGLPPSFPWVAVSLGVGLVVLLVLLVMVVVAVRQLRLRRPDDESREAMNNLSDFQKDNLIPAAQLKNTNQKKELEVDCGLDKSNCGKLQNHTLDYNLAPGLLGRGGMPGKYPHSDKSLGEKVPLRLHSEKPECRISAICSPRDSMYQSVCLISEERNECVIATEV
Source text: as §1

[3] = target: T3, recombinant human DLL4, C-terminally His-tagged extracellular domain (R&D Systems) (human, UniProt Q9NR61 25-522, biotinylated where used in competition ELISA, AlphaScreen and on SA chips); test: competition ELISA, periplasmic extract
T3 construct: also called rhDLL4; hDLL4; not shown: C-terminal His tag
T3 sequence (Q9NR61 25-522): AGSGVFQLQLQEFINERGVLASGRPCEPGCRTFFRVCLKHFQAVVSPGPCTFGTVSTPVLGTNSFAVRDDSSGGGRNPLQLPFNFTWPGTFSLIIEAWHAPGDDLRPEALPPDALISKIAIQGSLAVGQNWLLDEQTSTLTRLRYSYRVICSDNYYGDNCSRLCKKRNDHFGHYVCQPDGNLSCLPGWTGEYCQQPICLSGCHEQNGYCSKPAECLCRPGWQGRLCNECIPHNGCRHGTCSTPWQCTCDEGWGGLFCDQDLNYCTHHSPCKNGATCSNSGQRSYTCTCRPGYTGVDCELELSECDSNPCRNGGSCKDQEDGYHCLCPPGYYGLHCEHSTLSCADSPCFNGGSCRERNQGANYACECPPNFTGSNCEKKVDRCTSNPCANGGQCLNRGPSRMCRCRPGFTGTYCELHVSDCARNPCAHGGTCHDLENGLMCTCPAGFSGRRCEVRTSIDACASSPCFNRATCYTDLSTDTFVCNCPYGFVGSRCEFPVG

T1 sequence (Q9NR61 27-685 limits assumed): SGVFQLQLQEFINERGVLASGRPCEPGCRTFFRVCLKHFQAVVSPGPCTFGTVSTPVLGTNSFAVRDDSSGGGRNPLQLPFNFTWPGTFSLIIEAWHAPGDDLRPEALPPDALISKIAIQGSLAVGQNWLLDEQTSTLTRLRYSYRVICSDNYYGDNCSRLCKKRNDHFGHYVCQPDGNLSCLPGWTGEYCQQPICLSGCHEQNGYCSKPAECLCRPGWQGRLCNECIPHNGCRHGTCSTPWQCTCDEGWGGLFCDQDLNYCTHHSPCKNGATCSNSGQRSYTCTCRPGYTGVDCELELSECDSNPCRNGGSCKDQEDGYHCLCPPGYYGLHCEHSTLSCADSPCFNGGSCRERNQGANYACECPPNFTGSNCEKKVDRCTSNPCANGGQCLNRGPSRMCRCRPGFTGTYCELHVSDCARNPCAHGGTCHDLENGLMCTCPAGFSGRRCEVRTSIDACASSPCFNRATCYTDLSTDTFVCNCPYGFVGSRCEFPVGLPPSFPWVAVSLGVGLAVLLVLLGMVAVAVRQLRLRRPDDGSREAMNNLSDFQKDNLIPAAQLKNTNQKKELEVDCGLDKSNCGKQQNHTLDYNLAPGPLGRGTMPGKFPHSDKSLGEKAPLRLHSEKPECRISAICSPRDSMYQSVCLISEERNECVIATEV

Binder	FMAT hDLL4 % inhibition [1] [%]	FMAT mDLL4 % inhibition [2] [%]	ELISA hDLL4 % inhibition [3] [%]
DLLBII62C11 (VHH, not shown: C-terminal c-myc tag and His6 tag) VHH: EVQLMESGGGLVQPGGSLRLSCVAAGFTFSNYYMSWVRQAPGKGLEWVSVISPDGSNTYYADTVKGRFTISRGNAKNTLFLQMTGLKSEDAAVYYCARGSGSWGVHGQGTQVTVSS	74	71	–
DLLBII101H09 (VHH, tested as periplasmic extract; also called DLLBII101H9; not shown: C-terminal c-myc tag and His6 tag) VHH: EVQLVESGGGLVQPGGSLRLSCAASGFTLGYYTIVWFRQAPGKERKGVSCISSRDGSRYYADSVKGRFTISRDNAKNTVYLRMNSLKPEDTAVYYCAAGPDCSSYDYWGQGTQVTVSS	87	75	–
DLLBII101F01 (VHH, tested as periplasmic extract; also called DLLBII101F1; not shown: C-terminal c-myc tag and His6 tag) VHH: EVQLVESGGGLVQAGGSLRLSCAASGRTFSNYAMGWFRQAPGKEREFVAAISWSGGDTYYADSVKGRFTISRDNAKNTVCLQMNSLKPEDTAVYYCAASFQSGAAPGANFYDYWGQGTQVTVSS	85	78	–
DLLBII58A11 (VHH, tested as periplasmic extract; not shown: C-terminal c-myc tag and His6 tag) VHH: EVQLVESGGGLVQAGGSLRLSCTTSERTVSRYSMGWFRQAPGKEREAVATISWSGDSTYYADSVKGRFTISRDNTKNTLYLQIDSLKPEDTAVYYCVAKPNLKYGSYWPPRGYDYWGQGTQVTVSS	95	73	–
DLLBII96C03 (VHH, also called DLLBII96C3; DLLBII96CO3; not shown: C-terminal c-myc tag and His6 tag) VHH: EVQLVESGGGLVQPGGSLRLSCAASGFTFGNYDMSWVRQAPGKGPEWVSAINSGGGDTYYADSVKGRFTISRDNAKNTLYLQMNSLKPEDTAVYYCATPRGWGPTGPHEYGYWGQGTQVTVSS	75	83	–
DLLBII5B11 (VHH, also called DLLBII05B11; not shown: C-terminal c-myc tag and His6 tag) VHH: EVQLVESGGGLVQPGGSLRLSCAISGFTLDLHVIGWLRQAPGKEREWVSCISSSDGSTYYADSVKGRFTISRDNAKNTVYLQMNSLKPEDTAVYYCAAPWDSWYCGIGNDYDYWGQGTQVTVSS	–	–	98
DLLBII102G04 (VHH, tested as periplasmic extract; also called DLLBII102G4; not shown: C-terminal c-myc tag and His6 tag) VHH: EVQLMESGGGLVQPGGSLRLSCAASGFTFSSYAMSWVRQAPGKGLEWVSRITSGGRTTYRDSVKGRFTISRDNSKNTLYLQMNSLKPEDTALYYCAKARGDIDVYTLSDSRGQGTQVTVSS	86	82	–
DLLBII102F08 (VHH, tested as periplasmic extract; also called DLLBII102F8; not shown: C-terminal c-myc tag and His6 tag) VHH: EVQLVESGGGLVQTGDSLRLSCAASGSTFSNYRMGWFRQGPGKEREFVAAIGRNGQNTYYTDSVKGRFTVTRDNAKNMVYLQMNSLKPEDSAVYTCAASLRGWDTTRIDYEYWGQGTQVTVSS	85	75	–
DLLBII8A09 (VHH, also called DLLBII08A09; not shown: C-terminal c-myc tag and His6 tag) VHH: EVQLVESGGGLVQPGGSLRLSCAASGFTLDYYNIGWFRQAPGKEREWVSCINSSDGSTYYADSVKGRFTISRDNAKNTVYLQMNSLKPEDTAVYYCAAPFAYYSNLCGVNGYDYWGQGTQVTVSS	–	–	96
DLLBII61F07 (VHH, tested as periplasmic extract; also called DLLBII61F7; not shown: C-terminal c-myc tag and His6 tag) VHH: EVQLVESGGGLVQAGGSLRLSCAASGRTFSRYAMGWFRQAPGKEREFVAAINWSGGSTYYADSVKGRFTISRDNAKNTVYLQMNSLKPEDTAVYDCAASNYYSVYDDRPVMDYWGQGTQVTVSS	79	77	–
DLLBII61F05 (VHH, tested as periplasmic extract; also called DLLBII61F5; not shown: C-terminal c-myc tag and His6 tag) VHH: EVQLVESGGGLVQPGGSLRLSCTASGFTFSSYAMSWVRQAPGKGLEWVSFINKDGSDTGYADSVKGRFTISRDNAKNTMYLQMNSLKPEDTAVYFCETRTSRSPRPRGQGTQVTVSS	74	76	–
DLLBII95F02 (VHH, tested as periplasmic extract; also called DLLBII95F2; not shown: C-terminal c-myc tag and His6 tag) VHH: EVQLVESGGGSVQAGGSLRLSCAASGRTFSSYAMGWFRQAPGKEREFVAAINWSGGYTYYADSVRGRFTISRDNAKNTVYLQMNSLKPEDTAVYYCAAPAPGSSGYEYDYWGQGTQVTVSS	81	71	–
DLLBII47D01 (VHH, tested as periplasmic extract; also called DLLBII47D1; not shown: C-terminal c-myc tag and His6 tag) VHH: EVQLVESGGGLVQPGGSLRLSCAASGFTFDDYAIGWFRQAPGKEREGVSCISSSGSTYYADSVKGRFTISRDNAKNTVYLQMNSLKPEDTAVYYCAIAGASSWCFPPGYWGQGTQVTVSS	87	–	–
DLLBII80E08 (VHH, tested as periplasmic extract; also called DLLBII80E8; not shown: C-terminal c-myc tag and His6 tag) VHH: EVQLVESGGGLVQAGGSLTLSCAASGGTFTTYAMGWFRQAPGKEREFVAAVSRFGVSWDYADSVKGRFTISRDNTANTLKLRMNSLKADDTAVYYCAAGGRSFLPFVPAYWGQGTQVTVSS	71	82	–

Results, then the binder that gave them:

FMAT hDLL4 % inhibition [1] [%]	FMAT mDLL4 % inhibition [2] [%]	ELISA hDLL4 % inhibition [3] [%]	Binder
86	78	–	DLLBII104B05 (VHH, tested as periplasmic extract; also called DLLBII104B5; not shown: C-terminal c-myc tag and His6 tag) VHH: EVQLVESGGGSVQAGGSLRLSCAASGSISRIDVMAWYRQAPGKERELVASISSGGSTNYADSVKGRFTISREYFKNMMYLQMNSLKFEDTAVYYCNADSRRGGVGNFFRSWGQGTQVTVSS
75	90	–	DLLBII112A04 (VHH, tested as periplasmic extract; also called DLLBII112A4; not shown: C-terminal c-myc tag and His6 tag) VHH: EVQLVESGGGLVQAGGSLRLSCAAFGRTPYGMGWFRQAPGKEREFVAAITSDGSTNYADSVKGRFTISRDNAKNAVSLQMNSLKPEDTAVYYCTAPYYSDFEGTTTEYDYWGQGTQVTVSS
75	80	–	DLLBII107C03 (VHH, tested as periplasmic extract; also called DLLBII107C3; not shown: C-terminal c-myc tag and His6 tag) VHH: EVQLVESGGGLVQPGGSLRLSCEVSGSIGSVSDMRWYRQAPGLQYELVARITSGSITDYSDSVKGRFTISRDNAKNTVYLQMNSLKPEDTAVYYCNADVQHSAWLKPLTYWGQGTQVTVSS
87	83	–	DLLBII104C04 (VHH, tested as periplasmic extract; also called DLLBII104C4; not shown: C-terminal c-myc tag and His6 tag) VHH: EVQLVESGGGLVQAGGSLRLSCAAAGSTFSSYVMGWYRQAPGKQRELVAHISTRGITYYADSVKGRFTISRDNAKNTMYLQMNSLKPEDTAVYYCNTRRNFLSNYWGQGTQVTVSS
80	85	–	DLLBII112E07 (VHH, tested as periplasmic extract; also called DLLBII112E7; not shown: C-terminal c-myc tag and His6 tag) VHH: EVQLVESGGGLVQAGGSLRLSCAASGRTVRSYATGWFRQAPGKEREFVAALRWSIGSIASVYYDDSVKGRFTISGDNAENTVYLQMNALKPEDTAIYYCASTTRGRYSALSASAYDYWGQGTQVTVSS
74	84	–	DLLBII115A05 (VHH, also called DLLBII115A5; 115A5; not shown: C-terminal c-myc tag and His6 tag) VHH: EVQLVESGGGLVQPGGSLRLSCAASGFTFGSYDMSWVRRSPGKGPEWVSSINSGGGSTYYADFVKGRFTISRDNAKNTLYLQMNSLKPEDTAVYYCAADRYIRARQGDYWGAYEYDYWGQGTQVTVSS
86	83	–	DLLBII104A03 (VHH, tested as periplasmic extract; also called DLLBII104A3; not shown: C-terminal c-myc tag and His6 tag) VHH: EVQLVESGGGLVQAGGSLRLSCAASGDIPRIAAMGWYRQAPGKQRELVATVSNAATTRYADSAKGRFTISRDNAKTVSLQMDNLKPEDTGVYYCYSLATTVTPSWVNYWGQGTQVTVSS
72	97	–	DLLBII112A03 (VHH, tested as periplasmic extract; also called DLLBII112A3; not shown: C-terminal c-myc tag and His6 tag) VHH: EVQLVESGGGLVQPGGSLRLSCAASGIRFSINGMGWYRQAPGKQREAVATITRGGIRDYTDSVKGRFTISRDIARNTVYLQMNNLKPEDSAVYYCNIDIYWGRGTQVTVSS
